Experimental data reported in patent US20070244048A1 (published 2007).
Non-standard residues stand in square brackets, D forms with d. No end group written: not given here.

T1: human NMUR1 (human, UniProt Q9HB89 1-426)
T1 sequence (looked up): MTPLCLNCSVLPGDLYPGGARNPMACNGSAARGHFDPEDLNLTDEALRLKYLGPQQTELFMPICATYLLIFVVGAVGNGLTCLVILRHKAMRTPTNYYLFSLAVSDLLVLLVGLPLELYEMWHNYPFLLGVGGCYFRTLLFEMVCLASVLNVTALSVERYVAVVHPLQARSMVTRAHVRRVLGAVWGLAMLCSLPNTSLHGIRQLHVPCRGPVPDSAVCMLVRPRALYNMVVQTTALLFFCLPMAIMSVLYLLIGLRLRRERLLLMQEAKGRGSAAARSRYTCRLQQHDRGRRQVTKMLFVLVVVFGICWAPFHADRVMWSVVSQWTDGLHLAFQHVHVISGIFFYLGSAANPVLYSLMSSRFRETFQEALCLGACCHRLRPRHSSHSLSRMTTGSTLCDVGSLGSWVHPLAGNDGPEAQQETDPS


Tests used:
human NMUR1 [1] = target: T1, human NMUR1; assay: cell-based or functional assay
human NMUR2 [2] = target: T2, human NMUR2 (human, UniProt Q9GZQ4 1-415); assay: cell-based or functional assay
human NMUR1 [3] = target: T1, human NMUR1; assay: 125I-hNMU-25 displacement, HEK cell membranes
Description: (§1) Confluent cell monolayers expressing NMU receptors (the HEK cells described above) were harvested with phosphate buffered saline, collected by centrifugation, and resuspended in membrane buffer (50 mM TrisCl pH 7.4, 5 mM MgCl₂, 1× Protease Inhibitor Cocktail, 10 μM phosphoramidon). After the cell pellet was homogenized, the solution was centrifuged at 18,000 rpm for 20 minutes at 4° C. The pellet was resuspended in membrane buffer to yield a final concentration of 0.5-5 μg/μL of membrane and stored at −80° C.
(§2) Experiments were performed in assay buffer (25 mM TrisCl, pH 7.4, 10 mM MgCl₂, 2mM EDTA, 1× Protease Inhibitor Cocktail, 100 μg/mL Bacitricin, 10 μM phosphoramidon) in 200 μL volumes in a 96-well format using 2-5 μg of membrane and […] ¹²⁵I-hNMU-25 (about 12,000 cpm/well). For non-specific binding, 1 μM hNMU-25 was added. About 5 μL of peptides were added to measure antagonist activity, and the entire reaction was incubated at room temperature with shaking for 80 minutes. The reaction was terminated by rapid filtration through 0.3% poly-ethylenimine presoaked Millipore 96-well filter plates and washed with ice-cold buffer (5 mM TrisCl pH 7.4, 10 mM MgCl₂, 2.5 mM EDTA, 0.04% Triton X-100). Plates were air-dried overnight at room temperature and recovered radioactivity was determined by standard scintillation counting. IC₅₀ values were determined using GraphPad Prism software.
(§3) Concentration-response curves and radioligand-binding data were fitted using Prism (GraphPad Software). Results are summarized below in Tables 8 and 9.

human NMUR2 [4] = target: T2, human NMUR2; assay: 125I-hNMU-25 displacement, HEK cell membranes
Description: as §1, §2, §3

T2 sequence (Q9GZQ4 whole entry): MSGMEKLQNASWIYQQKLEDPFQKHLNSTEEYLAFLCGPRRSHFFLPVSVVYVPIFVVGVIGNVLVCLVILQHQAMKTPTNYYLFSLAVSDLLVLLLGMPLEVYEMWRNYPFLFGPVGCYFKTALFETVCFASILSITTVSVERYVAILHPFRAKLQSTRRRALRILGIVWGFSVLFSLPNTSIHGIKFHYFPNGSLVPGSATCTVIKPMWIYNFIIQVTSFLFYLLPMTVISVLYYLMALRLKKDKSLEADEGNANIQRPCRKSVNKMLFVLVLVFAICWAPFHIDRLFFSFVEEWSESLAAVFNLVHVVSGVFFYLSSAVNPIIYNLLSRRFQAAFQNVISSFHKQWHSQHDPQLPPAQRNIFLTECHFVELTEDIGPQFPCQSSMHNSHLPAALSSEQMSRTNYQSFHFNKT

Row | Binder | % activity (human NMUR1 [1]) [%] | IC50 (nM), functional (human NMUR1 [1]) [nM] | % activity (human NMUR2 [2]) [%] | IC50 (nM), functional (human NMUR2 [2]) [nM] | % activity (binding) (human NMUR1 [3]) [%] | IC50 (human NMUR1 [3]) [nM] | % activity (binding) (human NMUR2 [4]) [%] | IC50 (human NMUR2 [4]) [nM]
1 | Ac-F[dL]WRPRN-NH2 (SMILES CC(=O)N[C@@H](Cc1ccccc1)C(=O)N[C@H](CC(C)C)C(=O)N[C@@H](Cc1c[nH]c2ccccc12)C(=O)N[C@@H](CCCNC(=N)N)C(=O)N1CCC[C@H]1C(=O)N[C@@H](CCCNC(=N)N)C(=O)N[C@@H](CC(N)=O)C(N)=O) [neuromedin U receptor agonist E] | 100 | 1.9 | 1.8 | > 1000 | 93 | 75 | 5 | 
2 | FRVDEEFQSPFASQSRGYFWRPRN-NH2 [neuromedin U receptor agonist G] | 91 | 8.4 | 14 | > 1000 | 97 | 2.1 | 33 | 31
